Experiments:
Test in all cases: fluorescence anisotropy
Conditions in all cases: FA: 20 mM Tris-HCl pH 7.5, 70 mM KCl, 1 mM MgCl2, 10% glycerol, 50 nM DNA, EMSA: 20 mM Tris-HCl pH 7.5, 300 mM KCl, 4 mM MgCl2, 5 mM DTT, 1 nM …
[1] = tested on: EcGyrA-CTD(ΔT) (Escherichia coli)
[2] = tested on: MBP-PfGyrA-CTD (Plasmodium falciparum)
[3] = tested on: MBP-PfGyrA-CTD(ΔN) (Plasmodium falciparum)

**Q.** Which Kd [1] does the source give for 37-bp dsDNA here?
**A.** 1110 nM

**Q.** And the Kd [2]?
**A.** 205 nM

**Q.** And the Kd [3]?
**A.** 222 nM
